T1: N-terminally FLAG-tagged soluble human CD39 secreted from COS-1 cells transfected with pIL2LFlagSolCD39 (human, UniProt P49961 38-476)
T1 construct: The cleavage site of the leader was not determined for the FLAG-tagged form; In conditioned medium, about 66 kD, glycosylated; also called pIL2LFlagSolCD39 product; tagged soluble CD39
T1 sequence: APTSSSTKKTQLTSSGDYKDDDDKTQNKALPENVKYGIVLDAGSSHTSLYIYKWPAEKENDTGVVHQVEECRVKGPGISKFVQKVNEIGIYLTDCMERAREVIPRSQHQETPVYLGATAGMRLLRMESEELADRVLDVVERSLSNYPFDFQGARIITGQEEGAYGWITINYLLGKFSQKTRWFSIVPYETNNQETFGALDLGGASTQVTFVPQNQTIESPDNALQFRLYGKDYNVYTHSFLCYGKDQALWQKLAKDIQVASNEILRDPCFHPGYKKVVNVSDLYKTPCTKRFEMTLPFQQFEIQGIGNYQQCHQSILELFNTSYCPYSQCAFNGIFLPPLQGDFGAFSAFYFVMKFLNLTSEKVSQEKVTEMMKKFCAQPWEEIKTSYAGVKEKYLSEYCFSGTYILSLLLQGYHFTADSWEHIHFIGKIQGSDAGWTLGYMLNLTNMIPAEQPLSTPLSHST


Key:
[1] = target: T1, N-terminally FLAG-tagged soluble human …; test: immunoaffinity depletion of COS-1 conditioned medium with conjugated Affigel beads, ATPase activity left in the supernatant
Description: CM was collected from COS-1 cells transfected with pIL2LFlagSolCD39, which had been cultured for 5 days in DMEM/F12 supplemented with 5% FCS. A 100 μl aliquot of drained Affigel beads (AG) conjugated with either chicken ovalbumin, antiFLAG mAb, or anti-CD39 mAb was added per ml of CM. […] Each cycle involved continuous gentle agitation of the slurry for 14 h at 4° C. followed by centrifugation to recover supernatants for a subsequent binding cycle or for ATPDase activity measurements.

[2] = Enzymatic (ATPase and ADPase) activity of site-directed CD39 mutants; format: biochemical; details: alanine replacement in conserved apyrase regions
Description: Mutants were assayed for enzymatic (ATPase and ADPase) and platelet inhibitory (dose-dependent inhibition of platelet aggregation) activities. For one series of mutants, residues within the conserved apyrase regions were replaced with alanine.

platelets = test: Platelet aggregation in platelet-rich plasma from volunteers; format: cell-based, human; details: alanine replacement mutant
Description: After obtaining informed consent from volunteers, blood was collected via plastic tubing using acid citrate-dextrose (38 mM citric acid; 75 mM sodium citrate; 135 mM glucose) as anticoagulant. Where indicated, volunteers had ingested 650 mg acetylsalicylic acid (ASA) 18 h prior to blood donation. Platelet-rich plasma (PRP) was prepared with an initial whole blood centrifugation (200 g, 15 min, 25° C.), and a second centrifugation of the PRP (90 g, 10 min) to eliminate residual erythrocytes and leukocytes. The stock suspension of PRP was maintained at room temperature under 5% CO2-air.
Total volumes were adjusted to 300 μl with TSG buffer (Marcus et al., J. Clin. Invest. 88:1690, 1991; Marcus et al., J. Clin. Invest. 99:1351, 1997). After the 3 min preincubation, platelet agonists (ADP or collagen) were added at the concentrations indicated, and the aggregation response recorded for 4-5 min.

| binding result [1] | Molecule | enzymatic activity of mutant [2] | effect on platelet responsiveness (platelets) |
| --- | --- | --- | --- |
| no binding | chicken ovalbumin conjugated to Affigel beads (other, UniProt P01012 2-386, looked up, Control beads; also called ovalbumin-conjugated AG; ovalbumin-conjugated beads) GSIGAASMEFCFDVFKELKVHHANENIFYCPIAIMSALAMVYLGAKDSTRTQINKVVRFDKLPGFGDSIEAQCGTSVNVHSSLRDILNQITKPNDVYSFSLASRLYAEERYPILPEYLQCVKELYRGGLEPINFQTAADQARELINSWVESQTNGIIRNVLQPSSVDSQTAMVLVNAIVFKGLWEKAFKDEDTQAMPFRVTEQESKPVQMMYQIGLFRVASMASEKMKILELPFASGTMSMLVLLPDEVSGLEQLESIINFEKLTEWTSSNVMEERKIKVYLPRMKMEEKYNLTSVLMAMGITDVFSSSANLSGISSAESLKISQAVHAAHAEINEAGREVVGSAEAGVDAASVSEEFRADHPFLFCIKHIATNAVLFFGRCVSP |  |  |
|  | E174A mutant: CD39 mutant, Glutamate 174 replaced with alanine (protein, UniProt P49961 1-510, looked up, variant E174A) Ectonucleoside triphosphate …: MEDTKESNVKTFCSKNILAILGFSSIIAVIALLAVGLTQNKALPENVKYGIVLDAGSSHTSLYIYKWPAEKENDTGVVHQVEECRVKGPGISKFVQKVNEIGIYLTDCMERAREVIPRSQHQETPVYLGATAGMRLLRMESEELADRVLDVVERSLSNYPFDFQGARIITGQEAGAYGWITINYLLGKFSQKTRWFSIVPYETNNQETFGALDLGGASTQVTFVPQNQTIESPDNALQFRLYGKDYNVYTHSFLCYGKDQALWQKLAKDIQVASNEILRDPCFHPGYKKVVNVSDLYKTPCTKRFEMTLPFQQFEIQGIGNYQQCHQSILELFNTSYCPYSQCAFNGIFLPPLQGDFGAFSAFYFVMKFLNLTSEKVSQEKVTEMMKKFCAQPWEEIKTSYAGVKEKYLSEYCFSGTYILSLLLQGYHFTADSWEHIHFIGKIQGSDAGWTLGYMLNLTNMIPAEQPLSTPLSHSTYVFLMVLFSLVLFTVAIIGLLIFHKPSYFWKDMV | completely devoid of enzymatic activity | no effect on platelet responsiveness |

From patent US20020002277A1, “Inhibitors of platelet activation and recruitment” (priority 1998, published 2002)
